Reference: PMC9456107, “DNA Motifs and an Accessory CRISPR Factor Determine Cas1 Binding and Integration Activity in Sulfolobus islandicus”

What was measured:
Cas2 (SisCas2) = molecular target: T1, Cas2 (SisCas2) (Sulfolobus islandicus REY15A, UniProt F0NH44 1-89); test: EMSA; 3.3 and 6.7 uM Cas2; EMSA on 12% native PAGE, 0.3 uM FAM probe (0.5 uM P1 in Fig S3); buffer, pH and temperature not stated (refers to earlier work); details: protein: recombinant; tags: C-terminal His; chain copies: 2; label: 5'-FAM on sense strand; mixture of blunt duplex, ssDNA and hairpin
T1 sequence: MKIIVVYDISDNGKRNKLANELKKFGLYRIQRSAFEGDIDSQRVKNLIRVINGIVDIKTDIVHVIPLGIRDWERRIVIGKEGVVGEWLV

PfuCas1 = molecular target: T2, PfuCas1 (Pyrococcus furiosus COM1, UniProt I6TWX9 1-322); test: EMSA; EMSA on 12% native PAGE, 0.3 uM FAM probe (0.5 uM P1 in Fig S3); buffer, pH and temperature not stated (refers to earlier work); details: protein: recombinant, tags: C-terminal His, chain copies: 2, label: 5'-FAM
T2 sequence: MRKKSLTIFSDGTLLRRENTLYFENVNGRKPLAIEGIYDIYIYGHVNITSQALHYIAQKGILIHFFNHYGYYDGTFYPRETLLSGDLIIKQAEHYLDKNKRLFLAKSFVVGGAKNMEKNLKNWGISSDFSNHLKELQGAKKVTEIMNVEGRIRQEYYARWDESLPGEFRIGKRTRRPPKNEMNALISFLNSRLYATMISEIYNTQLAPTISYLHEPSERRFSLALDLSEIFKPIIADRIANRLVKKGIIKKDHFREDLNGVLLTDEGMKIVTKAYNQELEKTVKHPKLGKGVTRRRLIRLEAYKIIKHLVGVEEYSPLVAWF

B1: leader-proximal WT S/A annealed probe (5:1 or unspecified ratio, contains hairpin ssDNA) (mixed)
DNA 1: CAAATAGAGGGTTAAAAAACCCTCAGCTAATC
DNA 2: GATTAGCTGAGGGTTTTTTAACCCTCTATTTG
**Q.** Does B1 bind (Cas2 (SisCas2))?
**A.** no binding

B2: Pfu-WT leader-repeat ssDNA (structured_DNA)
DNA: CTCCGTAGGAGGATTGGGGCAAAAAAGCCCCCTGTTCCAATAAGACTACAAAAGAATTGAAAG
**Q.** Does B2 bind (PfuCas1; hairpin)?
**A.** binds

**Q.** Does TCCTCCACTTTCCCCGTAAGGGGTCGGAGGGGGCGGTCTTTCCC (structured_DNA) [Syn-S leader ssDNA] bind (PfuCas1; two predicted hairpins)?
**A.** binds
